B1: Nitrogen regulatory protein P-II (Synechococcus elongatus (strain PCC 7942)), P0A3F4 (parent)
chain: MKKIEAIIRPFKLDEVKIALVNAGIVGMTVSEVRGFGRQKGQTERYRGSEYTVEFLQKLKLEIVVEDAQVDTVIDKIVAAARTGEIGDGKIFVSPVDQTIRIRTGEKNADAI
partner: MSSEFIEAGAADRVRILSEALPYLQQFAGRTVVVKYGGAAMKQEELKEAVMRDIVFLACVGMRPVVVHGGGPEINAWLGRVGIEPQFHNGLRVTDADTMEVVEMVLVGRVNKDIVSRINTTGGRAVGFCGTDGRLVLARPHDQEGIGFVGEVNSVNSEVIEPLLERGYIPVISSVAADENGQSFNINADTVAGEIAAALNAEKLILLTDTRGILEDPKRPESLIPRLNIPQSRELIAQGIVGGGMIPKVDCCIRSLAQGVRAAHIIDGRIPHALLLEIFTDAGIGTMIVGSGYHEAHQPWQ

Variants of: B1
Settings: with argb_syne7 argB

Effect of a mutation on the interaction, decreasing interaction:
S49A
S49E
S49D

Source: IntAct's records for PubMed 15150219
